Numbering of substitutions follows the chain as printed. Names may count otherwise. Like-named read-outs stand apart in the source and are kept apart here.
What was measured:
DH1 = assay: Fosmidomycin sensitivity of E. coli strain DH1; type: cell-based
Method: Fosmidomycin sensitivity was tested by introducing various amounts of fosmidomycin into DH1, BW25113 and BL21, three E. coli strains commonly used for microbial metabolic engineering. […] At higher concentrations of fosmidomycin, cell death was accelerated in DH1, supported by a fast reduction in optical density (OD) at 600 nm after approximately two hours of exposure to fosmidomycin. On the other hand, both BL21 and BW25113 continued to grow for approximately four hours when exposed to equivalent fosmidomycin levels. Therefore, DH1 was selected as a host strain to screen PMD mutants for improved MVAP decarboxylation activity and subsequent isopentenol production in this study.

[1] = molecular target: T1, Saccharomyces cerevisiae diphosphomevalonate decarboxylase (PMDsc), wild type, SEQ ID NO: 1 (Saccharomyces cerevisiae, UniProt P32377); parameters: His tag; made in house; host or cells: E. coli (Rosetta (DE3) is stated for the mutant plasmids); details: Kang et al., 2016, Krepkiy and Miziorko, 2004, cited from earlier work
T1 sequence (P32377 1-396): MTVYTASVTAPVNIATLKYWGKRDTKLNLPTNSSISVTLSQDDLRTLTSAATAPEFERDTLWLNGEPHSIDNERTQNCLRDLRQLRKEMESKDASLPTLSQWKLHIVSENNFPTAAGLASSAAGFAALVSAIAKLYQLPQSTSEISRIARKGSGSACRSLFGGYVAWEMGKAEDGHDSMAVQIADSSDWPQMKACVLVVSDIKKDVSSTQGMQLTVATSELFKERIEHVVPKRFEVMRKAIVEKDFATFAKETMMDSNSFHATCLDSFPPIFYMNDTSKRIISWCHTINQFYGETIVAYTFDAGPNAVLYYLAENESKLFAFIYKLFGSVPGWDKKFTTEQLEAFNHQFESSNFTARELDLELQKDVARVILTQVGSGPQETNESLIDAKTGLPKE

[2] = molecular target: T2, Saccharomyces cerevisiae diphosphomevalonate decarboxylase (PMDsc, SEQ ID NO: 1) variant R74G (Saccharomyces cerevisiae, UniProt P32377, R74G); assay: In vitro kinetics of MVAP decarboxylation by PMDsc R74G (coupled assay)
T2 sequence (P32377 1-396 R74G): T1 sequence (P32377 1-396) with R74G
Method: (§1) This turnover number (kobs) depends upon each mutant's kcat, KM, and KI, yielding a more accurate assessment of the turnover conditions in vivo (Kang et al., 2016).
(§2) In vitro enzyme kinetics of PMDsc were performed as described in the previous study (Kang et al., 2016). Briefly, enzymatic activity was determined by a spectrophotometric assay quantifying ADP product formation via the pyruvate kinase/lactate dehydrogenase coupled enzyme assay. Assay mixtures were prepared in 150 μL total volume containing 50 mM HEPES-KOH (pH 7.5), 10 mM MgCl2, 400 μM phosphoenolpyruvate, 400 μM NADH, 4 mM ATP, and 25 U of pyruvate kinase/lactate dehydrogenase. The reaction was initiated by enzyme after incubating PMDsc substrate and cofactor for fifteen minutes with coupled assay components. The MVAP was varied from 0.100-4.0 mM, and the reaction velocity was determined by monitoring the absorbance at 340 nm in a Spectramax 384plus microplate reader (Molecular Devices, USA). To obtain kinetic data relevant to non-competitive substrate inhibition, MVAP was varied from 0.100-100 mM. Enzyme concentration (ε=56,630 M^−1 cm^−1) was determined spectrophotometrically at 280 nm with a NanoDrop ND-1000 spectrophotometer. kcat and KM were derived for PMDsc mutants by fitting the initial velocities measured from 0.100-4.0 mM MVAP to the Michaelis-Menten equation; KI was determined for select mutants by fitting initial velocities measured from 0.100-100 mM MVAP to the non-competitive substrate inhibition equation. All kinetic analysis was performed in Graphpad Prism, version 7.0a.

[3] = molecular target: T3, Saccharomyces cerevisiae diphosphomevalonate decarboxylase (PMDsc, SEQ ID NO: 1) variant Y19H (Saccharomyces cerevisiae, UniProt P32377, Y19H); assay: In vitro kinetics of MVAP decarboxylation by PMDsc Y19H (coupled assay); type: biochemical
T3 construct: His tag; made in house; host or cells: E. coli Rosetta (DE3)
T3 sequence (P32377 1-396 Y19H): T1 sequence (P32377 1-396) with Y19H

[4] = molecular target: T1, Saccharomyces cerevisiae diphosphomevalonate decarboxylase (PMDsc), wild type, SEQ ID NO: 1; assay: In vitro kinetics of MVAP decarboxylation by PMDsc WT (pyruvate kinase/lactate dehydrogenase coupled assay)
Method: as §1, §2

[5] = molecular target: T4, Saccharomyces cerevisiae diphosphomevalonate decarboxylase (PMDsc, SEQ ID NO: 1) variant M212Q (Saccharomyces cerevisiae, UniProt P32377, M212Q); assay: In vitro kinetics of MVAP decarboxylation by PMDsc M212Q (coupled assay); type: biochemical; details: MVAP 0.100-4.0 mM, 4 mM ATP, pH 7.5; brackets: standard error
T4 construct: His tag; made in house; host or cells: E. coli Rosetta (DE3)
T4 sequence (P32377 1-396 M212Q): T1 sequence (P32377 1-396) with M212Q

E. coli DH1 [6] = assay: Growth of E. coli DH1 under the screening conditions (MEP pathway blocked by fosmidomycin, IPP-bypass pathway + IPK)
[7] = substrate: C[C@@](O)(CCOP(=O)(O)O)CC(=O)O; assay: In vitro kinetics of MVAP decarboxylation by PMDsc R74H (coupled assay); type: biochemical, Saccharomyces cerevisiae; details: other: MVAP 0.100-4.0 mM, 4 mM ATP, pH 7.5, brackets: standard error
E. coli DH1 [8] = assay: Isopentenol production in E. coli via IPP-bypass MVA pathway (GC-FID); type: cell-based, Escherichia coli; details: for isopentenol titer: compared with wild type or library mutants
[9] = previous study (Kang 2015); cited from earlier work
E. coli DH1 [10] = details: cited from earlier work
[11] = substrate: C[C@@](O)(CCOP(=O)(O)O)CC(=O)O; assay: In vitro kinetics of MVAP decarboxylation by PMDsc Y19H (coupled assay); type: biochemical, Saccharomyces cerevisiae; details: other: MVAP 0.100-4.0 mM, 4 mM ATP, pH 7.5, brackets: standard error
[12] = substrate: C[C@@](O)(CCOP(=O)(O)O)CC(=O)O; assay: In vitro kinetics of MVAP decarboxylation by PMDsc S186C (coupled assay); type: biochemical, Saccharomyces cerevisiae; details: other: MVAP 0.100-4.0 mM, 4 mM ATP, pH 7.5, brackets: standard error
[13] = substrate: C[C@@](O)(CCOP(=O)(O)O)CC(=O)O; assay: In vitro kinetics of MVAP decarboxylation by PMDsc M212Q (coupled assay); type: biochemical, Saccharomyces cerevisiae; details: other: MVAP 0.100-4.0 mM, 4 mM ATP, pH 7.5, brackets: standard error
[14] = substrate: C[C@@](O)(CCOP(=O)(O)O)CC(=O)O; assay: In vitro kinetics of MVAP decarboxylation by PMDsc K22Y (coupled assay); type: biochemical, Saccharomyces cerevisiae; details: other: MVAP 0.100-4.0 mM, 4 mM ATP, pH 7.5, brackets: standard error
[15] = MVAP 0.100-4.0 mM, 4 mM ATP, pH 7.5, brackets: standard error
[16] = observed turnover number calculated at 100 mM MVAP, noncompetitive substrate inhibition
[17] = Table 2, screening conditions, standard deviation in brackets

## O=CN(O)CCCP(=O)(O)O [fosmidomycin]
DH1; 10 μM fosmidomycin
  growth on fosmidomycin: no growth
DH1; higher concentrations of fosmidomycin
  exposure time until fast reduction in OD at 600 nm: approximately two

## C[C@@](O)(CCOP(=O)(O)OP(=O)(O)O)CC(=O)O [MVAPP, mevalonate 5-diphosphate]
[1]; original substrate MVAPP
  kcat (MVAPP): 5.4 s⁻¹

## C[C@@](O)(CCOP(=O)(O)O)CC(=O)O [MVAP, mevalonate 5-phosphate]
[2]; [15]
  kcat: 0.14 s⁻¹
[2]; [16]
  kobs: 0.07 s⁻¹
[3]; [15]
  kcat/KM: 780 ± 60 M⁻¹ s⁻¹
[3]; Y19H versus wild type PMDsc, MVAP
  increase of kcat/KM compared to wild type: about 10 fold
[1]; alternative substrate MVAP
  kcat (MVAP): 0.14 s⁻¹
[4]; [15]
  Km: 2300 µM
  kcat: 0.15 s⁻¹
[4]; [16]
  kobs: 0.02 s⁻¹
[5]
  kcat/KM: 500 ± 100 M⁻¹ s⁻¹

B1: Saccharomyces cerevisiae diphosphomevalonate decarboxylase (PMDsc, SEQ ID NO: 1) variant R74H (Saccharomyces cerevisiae S288C; R74H) (protein)
chain: T1 sequence (P32377 1-396) with R74H
notes: His tag; made in house; host or cells: E. coli Rosetta (DE3)
E. coli DH1 [6]; 10 μM fosmidomycin, several dilutions, sequencing
  competitive growth of mixed culture (WT, K22M, R74H): dominant strain
E. coli DH1 [6]; 10-fold higher inducer concentration (100 nM aTc)
  Growth rate: 0.83±0.01 hr^1
E. coli DH1 [6]; [17]
  Growth rate: 0.68 (0.04) hr^−1
E. coli DH1 [6]; screening conditions
  Growth rate: 0.68 ± 0.04 h⁻¹
E. coli DH1 [6]; screening platform
  growth under fosmidomycin selection pressure: grew faster than the strain with WT PMDsc
[7]
  Km: 0.75 (0.05) mM
  kcat: 0.33 (0.03) sec^−1
  kcat/Km: 0.44 (0.05) mM^−1 sec^−1
E. coli DH1 [8]
  48 hr Titer (isopentenol): 770 (263) mg/L
[9]
  activity of WT for phosphomevalonate (MVAP): 220%
E. coli DH1 [10]; from a previous study (Kang et al., 2016)
  isopentenol titer: 770.3 mg/L

B2: T209D (protein)
chain: T1 sequence (P32377 1-396) with T209D
E. coli DH1 [10]; Kang et al., 2016
  isopentenol titer in E. coli: did not significantly change the isopentenol titer

B3: Saccharomyces cerevisiae diphosphomevalonate decarboxylase (PMDsc, SEQ ID NO: 1) variant Y19H (Saccharomyces cerevisiae S288C; Y19H) (protein)
chain: T1 sequence (P32377 1-396) with Y19H
notes: as for B1
E. coli DH1 [6]; [17]
  Growth rate: 0.22 (0.01) hr^−1
E. coli DH1 [8]
  48 hr Titer (isopentenol): 388 (9) mg/L
  isopentenol titer: significantly decreased isopentenol titers
[11]
  Km: 0.35 (0.02) mM
  kcat: 0.27 (0.01) sec^−1
  kcat/Km: 0.78 (0.06) mM^−1 sec^−1

B4: Saccharomyces cerevisiae diphosphomevalonate decarboxylase (PMDsc, SEQ ID NO: 1) variant S186C (Saccharomyces cerevisiae S288C; S186C) (protein)
chain: T1 sequence (P32377 1-396) with S186C
notes: as for B1
E. coli DH1 [6]; [17]
  Growth rate: 0.30 (0.02) hr^−1
E. coli DH1 [8]
  48 hr Titer (isopentenol): 596 (110) mg/L
[12]
  Km: 0.8 (0.2) mM
  kcat: 0.07 (0.01) sec^−1
  kcat/Km: 0.08 (0.02) mM^−1 sec^−1

B5: Saccharomyces cerevisiae diphosphomevalonate decarboxylase (PMDsc, SEQ ID NO: 1) variant M212Q (Saccharomyces cerevisiae S288C; M212Q) (protein)
chain: T1 sequence (P32377 1-396) with M212Q
notes: as for B1
E. coli DH1 [6]; [17]
  Growth rate: 0.09 (0.01) hr^−1
E. coli DH1 [8]
  48 hr Titer (isopentenol): 601 (76) mg/L
  isopentenol titer: significantly increase isopentenol titer
[13]
  Km: 0.7 (0.2) mM
  kcat: 0.35 (0.02) sec^−1
  kcat/Km: 0.5 (0.1) mM^−1 sec^−1

B6: Saccharomyces cerevisiae diphosphomevalonate decarboxylase (PMDsc, SEQ ID NO: 1) variant K22Y (Saccharomyces cerevisiae S288C; K22Y) (protein)
chain: T1 sequence (P32377 1-396) with K22Y
notes: as for B1
[14]
  Km: 1.3 (0.3) mM
  kcat: 0.09 (0.01) sec^−1
  kcat/Km: 0.12 (0.03) mM^−1 sec^−1
